Results taken from patent US20230322857A1, “RECOMBINANTLY ENGINEERED POLYPEPTIDES CAPABLE OF RECYCLING NONCANONICAL COFACTORS” (The Regents of the University of California, priority 2022, published 2023).
Entries after “also recorded” stand apart in the source; their conditions may differ.

What was measured:
Assay type in all cases: biochemical
[1] = Comparison of PTDH and GDH Triple redox cofactor cycling systems
Experimental: Comparison of PTDH and GDH Triple Redox Cofactor Cycling Systems. In cycling reactions focused on higher conversion and productivity, see FIG. 10C, the concentration of cofactor cycling protein (TS-PTDH or GDH Triple) was increased relative to the TTN determination experiments. Reactions were performed at 30° C. without shaking in 1 mL volumes in 2 mL glass vials secured with a PTFE-lined screw cap. Sampling and GC-FID analysis were performed as described in the TTN method section.
Reactions utilizing TS-PTDH LY-13 contained 100 mM MOPS at pH 7.5, 100 mM sodium phosphite, 33 mM KIP, and 18.8 μM XenA. Reactions utilizing GDH Triple contained 200 mM potassium phosphate at pH 7.5, 300 mM D-glucose, 1 M NaCl, 33 mM KIP, and 18.8 μM XenA. The NMN^+ concentration in each reaction was varied at 0, 0.05, 0.1, 0.5, or 5 mM. The reactions were initiated by spiking TS-PTDH LY-13 or GDH Triple to a final concentration of 10 μM.

[2] = Steady-state kinetics of TS-PTDH variants with NADP^+; conditions: 100 mM MOPS, pH 7.25, 10 mM sodium phosphite, varied cofactor concentrations; n = 3
[3] = TS-PTDH total turnover number determination (NMN(H) cycling with XenA, KIP to levodione); conditions: averaged over the 16-day reaction
Experimental: TS-PTDH Total Turnover Number Determination. Reactions to determine the TTN of TS-PTDH LY-13 (see FIG. 10B) were performed at 1 mL volumes in 2 mL glass vials secured with a PTFE-lined screw cap. Reactions were incubated without shaking at 30° C. Reaction buffer was comprised of 200 mM MOPS at pH 7.5, 100 mM sodium phosphite, 6 mM NMN^+, and 33 mM ketoisophorone (KIP). To initiate the reaction, purified TS-PTDH LY-13 and XenA were spiked into the reaction mixture to a final concentration of 0.25 μM and 18.8 μM, respectively. The reactions were sampled intermittently by removing 50 μL of reaction mixture and mixing with 100 μL of ethyl acetate containing 200 mg/L1-octanol. Samples were vortexed, centrifuged, and the ethyl acetate fraction was transferred to a GC vial for GC-FID analysis. GC-FID analysis for KIP biotransformation efficiency was performed on an Agilent 6850 GD using an Agilent DB-WAX column (30 m×0.56 mm×1 μm). Helium was used as a carrier gas. The inlet and detector were held at 250 and 260° C., respectively. 5 μL of sample was injected with a 2:1 split ratio. […] TTN was calculated by the moles of levodione produced divided by the moles of LY-13 supplied to the reaction system. Total turnover frequency was determined by dividing TTN by the total reaction time of 384 h. Levodione concentration was determined by correlating sample response to a standard curve of known values.

B1: LY-13: phosphite dehydrogenase variant with A155N, E175A, A176F (SEQ ID NO: 6) (protein)
chain: MLPKLVITHRVHEEILQLLAPHCELITNQTDSTLTREEILRRCRDAQAMMAFMPDRVDADFLQACPELRVIGCALKGFDNFDVDACTARGVWLTFVPDLLTVPTAELAIGLAVGLGRHLRAADAFVRSGKFRGWQPRFYGTGLDNATVGFLGMGNIGLAMADRLQGWGATLQYHAFKALDTQTEQRLGLRQVACSELFASSDFILLALPLNADTLHLVNAELLALVRPGALLVNPCRGSVVDEAAVLAALERGQLGGYAADVFEMEDWARADRPQQIDPALLAHPNTLFTPHIGSAVRAVRLEIERCAAQNILQALAGERPINAVNRLPKANPAAD
- time to complete conversion of the 33 mM KIP pool ([1]; 5 mM NMN^+ supplied, 10 μM cycling enzyme, 18.8 μM XenA): 12 h
- biotransformation performance compared to GDH Triple at low NMN^+ ([1]; NMN^+ supplementation 1 mM and lower): higher biotransformation rates and final titers; also recorded: more efficient utilization of the NMN^+ pool; also recorded: outperform GDH Triple
- Km [2]: 50 ± 10 µM
- NADP^+ kcat [2]: 0.96 ± 0.02 s⁻¹
- Total Turnover Frequency [3]: ~117 turnovers per hour
